Results: patent publication US20200131473

Test system: ETAA1-ATR activating domain (ETAA1-AAD)
Sequence (chain, as listed by the source): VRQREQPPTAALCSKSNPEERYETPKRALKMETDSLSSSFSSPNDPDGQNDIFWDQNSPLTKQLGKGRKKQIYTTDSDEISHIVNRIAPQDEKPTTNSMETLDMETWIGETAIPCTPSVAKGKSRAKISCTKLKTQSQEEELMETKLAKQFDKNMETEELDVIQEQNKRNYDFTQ

Sequence of ATR (ATM and Rad3-related kinase) (chain, as listed by the source): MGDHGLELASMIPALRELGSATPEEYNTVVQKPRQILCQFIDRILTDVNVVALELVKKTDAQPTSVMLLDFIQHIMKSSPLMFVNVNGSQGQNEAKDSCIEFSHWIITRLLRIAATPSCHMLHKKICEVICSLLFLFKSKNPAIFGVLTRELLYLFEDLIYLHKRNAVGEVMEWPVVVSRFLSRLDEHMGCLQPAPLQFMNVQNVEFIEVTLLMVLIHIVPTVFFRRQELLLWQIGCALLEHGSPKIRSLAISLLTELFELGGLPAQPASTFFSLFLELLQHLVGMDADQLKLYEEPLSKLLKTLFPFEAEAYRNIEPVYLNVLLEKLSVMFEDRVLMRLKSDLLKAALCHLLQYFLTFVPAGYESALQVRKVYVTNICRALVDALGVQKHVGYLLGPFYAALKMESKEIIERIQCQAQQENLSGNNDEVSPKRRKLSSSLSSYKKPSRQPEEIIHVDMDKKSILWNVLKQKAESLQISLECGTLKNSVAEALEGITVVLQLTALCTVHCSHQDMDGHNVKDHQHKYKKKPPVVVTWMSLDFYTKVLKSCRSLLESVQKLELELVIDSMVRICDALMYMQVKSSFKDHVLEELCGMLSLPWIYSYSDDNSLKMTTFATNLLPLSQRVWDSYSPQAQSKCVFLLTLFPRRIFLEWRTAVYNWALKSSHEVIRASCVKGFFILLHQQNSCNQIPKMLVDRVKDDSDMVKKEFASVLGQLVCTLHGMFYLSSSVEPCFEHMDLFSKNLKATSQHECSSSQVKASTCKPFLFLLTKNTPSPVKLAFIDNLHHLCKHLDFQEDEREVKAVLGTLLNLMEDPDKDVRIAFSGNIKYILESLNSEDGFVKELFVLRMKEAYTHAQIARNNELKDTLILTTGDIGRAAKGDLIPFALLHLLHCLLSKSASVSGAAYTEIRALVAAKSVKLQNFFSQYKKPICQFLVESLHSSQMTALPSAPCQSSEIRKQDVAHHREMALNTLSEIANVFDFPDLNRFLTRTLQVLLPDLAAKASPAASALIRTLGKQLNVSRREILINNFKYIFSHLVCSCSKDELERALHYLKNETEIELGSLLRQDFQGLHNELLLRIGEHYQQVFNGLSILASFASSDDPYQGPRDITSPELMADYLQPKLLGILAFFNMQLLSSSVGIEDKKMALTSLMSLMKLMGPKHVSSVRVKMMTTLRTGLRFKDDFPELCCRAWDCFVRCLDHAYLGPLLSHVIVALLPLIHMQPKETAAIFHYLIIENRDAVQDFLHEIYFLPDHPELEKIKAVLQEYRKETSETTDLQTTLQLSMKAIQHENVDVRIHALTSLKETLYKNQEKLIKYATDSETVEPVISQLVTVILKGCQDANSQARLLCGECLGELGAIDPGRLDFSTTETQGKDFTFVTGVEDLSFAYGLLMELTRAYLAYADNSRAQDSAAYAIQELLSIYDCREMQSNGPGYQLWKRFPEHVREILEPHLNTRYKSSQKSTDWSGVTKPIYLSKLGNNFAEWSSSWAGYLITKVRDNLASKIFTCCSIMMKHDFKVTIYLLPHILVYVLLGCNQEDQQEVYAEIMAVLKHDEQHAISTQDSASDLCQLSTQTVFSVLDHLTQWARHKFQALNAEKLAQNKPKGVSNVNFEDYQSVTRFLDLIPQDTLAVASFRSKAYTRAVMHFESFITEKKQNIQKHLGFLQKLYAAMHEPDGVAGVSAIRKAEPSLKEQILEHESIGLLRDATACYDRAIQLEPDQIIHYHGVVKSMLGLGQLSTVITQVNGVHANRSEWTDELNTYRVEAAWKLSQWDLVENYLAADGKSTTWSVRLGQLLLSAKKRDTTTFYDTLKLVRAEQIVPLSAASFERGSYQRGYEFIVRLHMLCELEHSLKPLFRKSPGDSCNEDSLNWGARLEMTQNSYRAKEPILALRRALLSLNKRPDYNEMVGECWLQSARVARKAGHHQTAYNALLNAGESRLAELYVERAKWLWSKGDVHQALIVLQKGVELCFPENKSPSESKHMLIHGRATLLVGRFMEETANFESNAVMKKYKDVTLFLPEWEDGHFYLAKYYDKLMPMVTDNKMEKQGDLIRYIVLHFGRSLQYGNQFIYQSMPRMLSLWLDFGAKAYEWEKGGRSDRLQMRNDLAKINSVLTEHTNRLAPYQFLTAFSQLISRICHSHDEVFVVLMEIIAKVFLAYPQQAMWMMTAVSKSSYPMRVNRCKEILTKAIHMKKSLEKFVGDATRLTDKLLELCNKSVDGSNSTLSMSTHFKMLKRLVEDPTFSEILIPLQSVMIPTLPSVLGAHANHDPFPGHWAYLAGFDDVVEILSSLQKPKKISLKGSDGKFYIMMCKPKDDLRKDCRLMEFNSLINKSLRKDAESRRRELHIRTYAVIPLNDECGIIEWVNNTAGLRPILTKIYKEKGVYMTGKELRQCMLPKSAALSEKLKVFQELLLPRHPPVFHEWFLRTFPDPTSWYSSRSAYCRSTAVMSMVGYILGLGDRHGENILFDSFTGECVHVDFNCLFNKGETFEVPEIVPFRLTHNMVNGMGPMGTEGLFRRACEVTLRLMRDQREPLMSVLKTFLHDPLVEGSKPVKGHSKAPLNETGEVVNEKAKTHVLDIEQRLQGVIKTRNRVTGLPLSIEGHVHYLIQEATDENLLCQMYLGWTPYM

**Q.** For ATR (ATM and Rad3-related kinase), which “phosphorylation of H2AX, CHK1 and CHK2 (immunoblot and FACS in Dox-iETAA1 ESCs)” value is on record?
**A.** ATR activation through ETAA1 expression leads to the phosphorylation of H2AX and CHK1 but not CHK2 in ESCs
